Our source for the stoichiometry of inhibition (SI) of bovine trypsin values is article PMC4020580.

The test addresses bovine trypsin (bovine).
Consider “labeled single-Cys S47C α1AT (natural protein)”, for which the stoichiometry of inhibition (SI) of bovine trypsin came to 1.1.

Turning to “α1AT Ser313Cys double-Cys variant (2Cys313), unlabeled (natural protein)”, the stoichiometry of inhibition (SI) of bovine trypsin is 1.1.

As to “labeled single-Cys S313C α1AT (natural protein)”, the stoichiometry of inhibition (SI) of bovine trypsin came out at 1.1.
